Assay results: patent US20100261660A1 (published 2010)
Numbering of substitutions follows the chain as printed.

B1: Round 2 CD28B6-6 (ligand)
chain: ITPKSVTKRVKETVMLSCDYSTSTEELTSLRIYWQKDSKMVLAILPGKVQVWPEYKNRTITDMNDNPRIVILALRLSDKGTYTCVIQKPVLKGAYKLEHLTSVTLSIRADFPVPSITDIGHPAPNVKRIRCSASGGFPEPRLAWMEDGEELNAVNTTVDQDLDTELYSVSSELDFNATNNHSIVCLIKYGELSVSQIFPWSKPKQEPPIDQLPFWVIVPVSGALVLTAVVLYCLACRHVAR
B2: Round 2 CD28D11-1 (ligand)
chain: ITPKSVTKRVKETVMLSCDYNTSTEELTSLRIYWQKDSKMVLAILPGKVQVWPEYKNRTITDMNDNPRIVILALRLSDSGTYTCVVQKNENGSFRREHLTSVTLSIRADFPVPSITDIGHPAPNVKRIRCSASGDFPEPRLAWMEDGEELNAVNTTVDQDLDTELYSVSSELDFNVTNNHSIVCLIKYGELSVSQIFPWSKPKQEPPIDQLPFWVIILVSGALVLTAVVLYCLACRHVARWKRTRRNEETVGTERLSPIYLGSAQSSG
B3: Round 2 CD28C2-4 (ligand)
chain: GISQVTKSVKEMAALSCDYNISIDELARMRIYWQKDQQMVLSIISGQVEVWPEYKNRTITDMNDNPRIVILALRLSDSGTYTCVIQKPVLKGAYKPEHLASVRLMIRADFPVPTINDLGNPSPNIRRLICSTSGGFPRPHLYWLENGEELNATNTTLSQDPETKLYMISSELDFNMTSNHSFLCLVKYGDLTVSQTFYWQESKPTPSANQHLTWTIIIPVSAFGISVIIAVILTCLTCRNAAIRRQRRENEVEMQSCSQSP
B4: Round 2 CD28D2-3 (ligand)
chain: ITPKSVTKRVKETVMLSCDYNTSTEELTSLRIYWQKDSKMVLAILPGKVQVWPEYKNRTITDMNDNPRIVIQALRLSDSGTYTCVIQKPVLKGAYKLEHLASVRLMIRADFPVPTDLGNPSPNIRRLICSTSGGFPRPHLYWLENGEELNATNTTVSQDPGTELYMISSELDFNVTNNHSIVCLIKYGELSVSQIFPWSKPKQEPPIDQLPFWVIIPVSGALVLTAVVLYCLACRHVARWKRTRRNEETVGTERLSPIYLGSAQSSG
B5: Round 2 CD28D12-5 (ligand)
chain: ITPKSVTKRVKETVMLSCDYSTSTEELTSLRIYWQKDSKMVLAILPGKVQVWPEYKNRTITDMNDNPRIVILALRLSDSGTYTCVIQKPVLKGAYKLEHLASVRLMIRADFPVPSITDIGHPAPNVKRIRCSASGDFPEPRLAWMEDGEELNAVNTTVLDTELYSVSSELDFNVTNNHSIVCLIKYGELSVSQIFPWSKPKQEPPIDQLPFWVIIPVSGALVLTAVVLYCLACRHVARWKRTRRNEETVGTERLSPIYLGSAQPSG
B6: Round 2 CD28BP-14 (ligand)
chain: GISQVTKSVKEMAALSCDYNISIDELARMRIYWQKDQQMVLSIISGQVEVWPEYKNRTITDMNDNPRIVILALRLSDSGTYTCVIQKPVLKGAYKLEHLASVRLMIRADFPVPTINDLGNPSPNIRRLICSTSGGFPRPHLYWLENGEELNATNTTVSQDPGTELYMISSELDFNVTNNHSIVCLIKYGELSVSQIFPWSKPKQEPPIDQLPFWVIIPVSGALVLTAVVLYCLACRHVARWKRTRRNEETVGTERLSPIYLGSAQSSG
B7: Round 2 CD28BP-13 (ligand)
chain: ITPKSVTKRVKETVMLSCDYSTSTEELTSLRIYWQKDSKMVLAILPGKVQVWPEYKNRTITDMNDNPRIVILALRLSDSGTYTCVIQKPVLKGAYKLEHLASVRLMIRADFPVPTINDLGNPSPNIRRLICSTSGGFPEPRLAWMEDGEELNAVNTTVDQDLDTELYSVSSELDFNVTNNHSIVCLIKYGELSVSQIFPWSKPKQEPPIDQLPFWVIIPVSGALVLTAVVLYCLACRHVARWKRTRRNEETVGTERLSPIYLGSAQSSG
B8: Round 2 CD28C11-5 (ligand)
chain: ITPKSVTKRVKETVMLSCDYNTSTEELTSLRIYWQKDSKMVLAILPGKVQVWPEYKNRTITDMNDNPRIVILALRLSDSGTYTCVIQKPVLKGAYKLEHLTSVRLMIRADFPVPTINDLGNPSPNIRRLICSTSGGFPRPHLYWLENGEELNATNTTVSQDPGTELYMISSELDFNVTNNHSIACLIKYGELSVSQIFPWSKPKQEPPIDQLPFWVIIPVSGALVLTAVVLYCLACRHVARWKRTRRNEETVGTERLSPIYLGSAQSSG
B9: Round 2 CD28F7-2 (ligand)
chain: B7 chain
B10: Round 2 CD28D2-9 (ligand)
chain: B8 chain with V158L, G163E, A184V
B11: Round 2 CD28G2-8 (ligand)
chain: B8 chain with T101A, T115S, A184V
B12: Round 2 CD28C8-6 (ligand)
chain: B8 chain with T101A, D174G, A184V
B13: Round 2 CD28BP-16 (ligand)
chain: B8 chain with A184V, T227A
B14: Round 2 CD28E5-2 (ligand)
chain: B8 chain with V90D, T101A, V158L, G163E, E165K, H181R, A184V
B15: Round 2 CD28D8-9 (ligand)
chain: B8 chain with N21S, A184V
B16: Round 2 CD28E10-6 (ligand)
chain: B8 chain with T101A, V158L, G163E, A184V
B17: Round 2 CD28F3-6 (ligand)
chain: B8 chain with N21S, V90D, V158L, G163E, E165K, A184V
B18: Round 2 CD28H11-3 (ligand)
chain: B8 chain with T101A, V158L, G163E, E165K, A184V, V229A
B19: Round 2 CD28F8-4 (ligand)
chain: B8 chain with N21S, T101A, V158L, G163E, E165K, A184V
B20: Round 2 CD28C6-1 (ligand)
chain: B8 chain with N21S, T101A, A184V, V239G
B21: Round 2 CD28E2-4 (ligand)
chain: B8 chain with N21S, S79K, T101A, A184V
B22: Round 2 CD28E9-6 (ligand)
chain: B8 chain with S79K, V90D, T101A, A184V
B23: Round 2 CD28C7-3 (ligand)
chain: ITPKSVTKRVKETVMLSCDYSTSTEELTSLRIYWQKDSKMVLAILPGKVQVWPEYKNRTITDMNDNPRIVILALRLSDSGTYTCVIQKPDLKGAYKLEHLTSVRLMIRADFPVPSITDIGHPAPNVKRIRCSASGDFPEPRLAWMEDGEELNAVNTTVDQDLDTELYSVSSELDFNVTNNHSIVCLIKYGELSVSQIFPWSKPKQEPPIDQLPFWVIIPVSGALVLTAVVLYCLACRHVARWKRTRRNEETVGTERLSPIYLGSAQSSG
B24: Round 2 CD28F12-5* (ligand)
chain: B23 chain with S21N, T101A
B25: Round 2 CD28G1-9 (ligand)
chain: B23 chain with S21N, D90V, D136G
B26: Round 2 CD28F10-2 (ligand)
chain: B23 chain with S21N
B27: Round 2 CD28B4-3 (ligand)
chain: ITPKSVTKRVKETVMLSCDYNTSTEELTSLRIYWQKDSKMVLAILPGKVQVWPEYKNRTITDMNDNPRIVILALRLSDSGTYTCVIQKPVLKGAYKLEHLTSVRLMIRADFPVPTINDLGNPSPNIRRLICSTSGGFPRPHLYWLENGEELNATNTTLSQDPETKLYMISSELDFNMTSNHSFLCLVKYGDLTVSQTFYWQESKPTPSANQHLTWTIIIPVSAFGISVIIAVILTCLTCRNAAIRRQRRENEVEMQSCSQSP
B28: Round 2 CD28E2-5* (ligand)
chain: B27 chain with I1T, L76P, T101A
B29: Round 2 CD28E8-6 (ligand)
chain: B27 chain with L158V, M177T
B30: Round 2 CD28B6-3 (ligand)
chain: B27 chain with V90D, E254K
B31: Round 2 CD28F3-1 (ligand)
chain: B27 chain with V90D, E149K
B32: Round 2 CD28D5-6 (ligand)
chain: B27 chain with N21S, T197S

Biological target: T1, Soluble CD28-Ig (extracellular domain of human CD28 fused to the Fc portion of human IgG1) (human, UniProt P10747 19-152, biotin-conjugated (NHS-biotin) in the FACS binding assays)
T1 construct: extracellular domain; bought from R&D Systems; also called sCD28-Ig; CD28-Ig Fc; not shown: Fc portion of human IgG1
Assay: competitive FACS on transfected cells, biotin-sCD28-Ig with FITC-sCTLA-4-Ig; grade 0-2 of CD28/CTLA-4 ratio vs WT hB7-1

Binding Score | Binder
1 | B1
2 | B2
1 | B3
1 | B4
2 | B5
2 | B6
2 | B7
2 | B8
2 | B9
1 | B10
1 | B11
2 | B12
2 | B13
0 | B14
1 | B15
1 | B16

Binding Score | Binder
0 | B17
1 | B18
1 | B19
1 | B20
1 | B21
0 | B22
1 | B23
1 | B24
1 | B25
1 | B26
1 | B27
0 | B28
0 | B29
1 | B30
0 | B31
0 | B32
